Molecular target: SARS-CoV-2 spike (S) glycoprotein on live SARS-CoV-2 virus (SARS-CoV-2) (UniProt P0DTC2)
Assay: cell-based or functional assay

Substance: Neg control
- in vitro virus neutralization EC50: > 10 µg/mL
